Test results: patent publication US20250129145A1 (Ablynx, published 2025)

B1: T026301360 (VHH, not shown: large carriers; small tags and cut ends)
chain: EVQLVESGGGVVQPGGSLRLSCAASGFTFRSFGMSWVRQAPGKGPEWVSSISGSGSDTLYADSVKGRFTISRDNSKNTLYLQMNSLRPEDTALYYCTIGGSLSRSSQGTLVTVSSGGGGSGGGSEVQLVESGGGVVQPGGSLRLSCAASGFTFRSFGMSWVRQAPGKGPEWVSSISGSGSDTLYADSVKGRFTISRDNSKNTLYLQMNSLRPEDTALYYCTIGGSLSRSSQGTLVTVSSA
notes: Tetravalent ISVD fusion protein made in P. pastoris; X and Y are undisclosed target ISVDs; also called X-9GS-Y-9GS-ALB23002-9GS-Alb223; X-Y-Alb23002-Alb223
B2: T026301365 (VHH, not shown: large carriers; small tags and cut ends)
chain: EVQLVESGGGVVQPGGSLRLSCAASGFTFRSFGMSWVRQAPGKGPEWVSSISGSGSDTLYADSVKGRFTISRDNSKNTLYLQMNSLRPEDTALYYCTIGGSLSRSSQGTLVTVSSGGGGSGGGGSGGGGSGGGGSGGGGSGGGGSGGGGSEVQLVESGGGVVQPGGSLRLSCAASGFTFRSFGMSWVRQAPGKGPEWVSSISGSGSDTLYADSVKGRFTISRDNSKNTLYLQMNSLRPEDTALYYCTIGGSLSRSSQGTLVTVSSA
notes: Tetravalent ISVD fusion protein made in P. pastoris; X and Y are undisclosed target ISVDs; also called X-9GS-Y-9GS-ALB23002-35GS-Alb223
B3: T032200003 (VHH)
chain: EVQLVESGGGVVQPGGSLRLSCAASGFTFRSFGMSWVRQAPGKGPEWVSSISGSGSDTLYADSVKGRFTISRDNSKNTLYLQMNSLRPEDTALYYCTIGGSLSRSSQGTLVTVSSGGGGSGGGGSGGGGSGGGGSGGGGSGGGGSGGGGSEVQLVESGGGVVQPGGSLRLSCAASGFTFRSFGMSWVRQAPGKGPEWVSSISGSGSDTLYADSVKGRFTISRDNSKNTLYLQMNSLRPEDTALYYCTIGGSLSRSSQGTLVTVSS
notes: also called ALB23002-35GS-ALB23002; bivalent ALB23002 construct

How the values were obtained:
mouse serum albumin [1] = molecular target: T1, mouse serum albumin (mouse, UniProt P07724 25-608); assay: SPR Biacore 8K+, MSA immobilized (C1 chip), pH 7.4, bivalent analyte fit (kd1)
T1 construct: Bought protein; also called MSA
T1 sequence (P07724 25-608 limits assumed): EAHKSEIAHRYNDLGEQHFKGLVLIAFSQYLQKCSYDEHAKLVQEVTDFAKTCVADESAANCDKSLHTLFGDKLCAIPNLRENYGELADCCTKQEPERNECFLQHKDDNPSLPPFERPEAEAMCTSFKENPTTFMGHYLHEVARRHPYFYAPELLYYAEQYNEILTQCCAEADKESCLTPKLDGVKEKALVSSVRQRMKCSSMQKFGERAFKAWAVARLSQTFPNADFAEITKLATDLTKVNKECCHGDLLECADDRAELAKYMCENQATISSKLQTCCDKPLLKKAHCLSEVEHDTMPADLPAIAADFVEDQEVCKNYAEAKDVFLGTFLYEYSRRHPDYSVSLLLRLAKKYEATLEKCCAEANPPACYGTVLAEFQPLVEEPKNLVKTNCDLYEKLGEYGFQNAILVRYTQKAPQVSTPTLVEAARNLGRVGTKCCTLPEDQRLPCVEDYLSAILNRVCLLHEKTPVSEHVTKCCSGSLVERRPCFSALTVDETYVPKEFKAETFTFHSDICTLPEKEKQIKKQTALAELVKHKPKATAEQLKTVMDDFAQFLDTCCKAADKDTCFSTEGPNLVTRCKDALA
Procedure: (§1) The constructs containing a 9GS and 35GS linker between the albumin-binding building blocks were selected for further characterization. The affinities of the purified ISVD expression constructs for human and mouse serum albumin (HSA and MSA, respectively) at pH 6.0 and pH 7.4 were determined on a Biacore 8K+ instrument. HSA or MSA (HSA: Sigma-Aldrich-Sigma, Cat No. A8763; MSA: Albumin Bioscience, Cat No. 2601) was immobilized on a Series S Sensor Chip C1. The fusion proteins as described in Table 7 above were injected at 9 different concentrations (between 0.6 and 2000 nM) and allowed to associate for 120 s at 30 μL/min and dissociate for 600 s. Evaluation of the sensorgrams was based on the bivalent analyte fit.

mouse serum albumin [2] = molecular target: T1, mouse serum albumin; assay: SPR Biacore 8K+, MSA immobilized (C1 chip), pH 7.4, bivalent analyte fit (ka1)
Procedure: as §1

mouse serum albumin [3] = molecular target: T1, mouse serum albumin; assay: SPR Biacore 8K+, MSA immobilized (C1 chip), pH 6.0, bivalent analyte fit (ka1)
Procedure: as §1

human serum albumin [4] = molecular target: T2, human serum albumin (human, UniProt P02768 25-609); assay: SPR Biacore 8K+, HSA immobilized (C1 chip), pH 7.4, bivalent analyte fit (ka1)
T2 construct: Bought protein; also called HSA
Procedure: as §1

mouse serum albumin [5] = molecular target: T1, mouse serum albumin; assay: SPR Biacore 8K+, MSA immobilized (C1 chip), pH 7.4, bivalent analyte fit (KD1)
Procedure: as §1

mouse serum albumin [6] = molecular target: T1, mouse serum albumin; assay: SPR Biacore 8K+, MSA immobilized (C1 chip), pH 6.0, bivalent analyte fit (KD1)
Procedure: as §1

human serum albumin [7] = molecular target: T2, human serum albumin; assay: SPR Biacore 8K+, HSA immobilized (C1 chip), pH 7.4, bivalent analyte fit (KD1)
Procedure: as §1

human serum albumin [8] = molecular target: T2, human serum albumin; assay: SPR Biacore 8K+, HSA immobilized (C1 chip), pH 6.0, bivalent analyte fit (ka1)
Procedure: as §1

human serum albumin [9] = molecular target: T2, human serum albumin; assay: SPR Biacore 8K+, HSA immobilized (C1 chip), pH 7.4, bivalent analyte fit (kd1)
Procedure: as §1

human serum albumin [10] = molecular target: T2, human serum albumin; assay: SPR Biacore 8K+, HSA immobilized (C1 chip), pH 6.0, bivalent analyte fit (kd1)
Procedure: as §1

mouse serum albumin [11] = molecular target: T1, mouse serum albumin; assay: SPR Biacore 8K+, MSA immobilized (C1 chip), pH 6.0, bivalent analyte fit (kd1)
Procedure: as §1

human serum albumin [12] = molecular target: T2, human serum albumin; assay: SPR Biacore 8K+, HSA immobilized (C1 chip), pH 6.0, bivalent analyte fit (KD1)
Procedure: as §1

mouse serum albumin [13] = molecular target: T1, mouse serum albumin; assay: SPR ProteOn XPR36, MSA immobilized (GLC sensor), pH 6.0, Langmuir 1:1 fit
Procedure: (§2) In a first experiment, the affinities of monovalent (ALB00223) and a bivalent ALB23002 construct (T032200003) for human and mouse serum albumin (HSA and MSA, respectively) at pH 6.0 and pH 7.4 were determined on a ProteOn XPR36 instrument (Bio-rad Laboratories, Inc.). HSA or MSA (HSA: Sigma-Aldrich—Sigma, Cat No. A8763; MSA: Albumin Bioscience, Cat No. 2601) was immobilized via amine coupling on a GLC sensor (short matrix, normal capacity). The constructs were injected at 6 different concentrations (between 0.95 and 500 nM) and allowed to associate for 120 s at 45 μL/min and dissociate for 600 s. Evaluation of the sensorgrams was based on the Kinetic Langmuir 1:1 (simultaneous ka/kd) fit.

human serum albumin [14] = molecular target: T2, human serum albumin; assay: SPR ProteOn XPR36, HSA immobilized (GLC sensor), pH 6.0, Langmuir 1:1 fit
Procedure: as §2

mouse serum albumin [15] = molecular target: T1, mouse serum albumin; assay: SPR ProteOn XPR36, MSA immobilized (GLC sensor), pH 7.4, Langmuir 1:1 fit
Procedure: as §2

human serum albumin [16] = molecular target: T2, human serum albumin; assay: SPR ProteOn XPR36, HSA immobilized (GLC sensor), pH 7.4, Langmuir 1:1 fit
Procedure: as §2

Row | Binder | koff (mouse serum albumin [1]) [s⁻¹] | kon (mouse serum albumin [2]) [M⁻¹ s⁻¹] | kon (mouse serum albumin [3]) [M⁻¹ s⁻¹] | kon (human serum albumin [4]) [M⁻¹ s⁻¹] | Kd (mouse serum albumin [5]) [nM] | Kd (mouse serum albumin [6]) [nM] | Kd (human serum albumin [7]) [nM] | kon (human serum albumin [8]) [M⁻¹ s⁻¹] | koff (human serum albumin [9]) [s⁻¹] | koff (human serum albumin [10]) [s⁻¹] | koff (mouse serum albumin [11]) [s⁻¹] | Kd (human serum albumin [12]) [nM] | other results
1 | B1 | 0.034 | 170000 | 190000 | 120000 | 210 | 210 | 12 | 170000 | 0.0015 | 0.0015 | 0.04 | 9 | 
2 | B2 | 0.0043 | 32000 | 58000 | 160000 | 140 | 100 | 9.9 | 180000 | 0.0016 | 0.0016 | 0.0059 | 8.8 | 
3 | B3 |  |  |  |  |  |  |  |  |  |  |  |  | Kd (mouse serum albumin [13]): 1.61 nM; koff (mouse serum albumin [13]): 0.00164 s⁻¹; kon (mouse serum albumin [13]): 1.02e+06 M⁻¹ s⁻¹; Kd (human serum albumin [14]): 0.512 nM; koff (human serum albumin [14]): 0.000388 s⁻¹; kon (human serum albumin [14]): 759000 M⁻¹ s⁻¹; Kd (mouse serum albumin [15]): 1.96 nM; koff (mouse serum albumin [15]): 0.00167 s⁻¹; kon (mouse serum albumin [15]): 854000 M⁻¹ s⁻¹; Kd (human serum albumin [16]): 0.865 nM; koff (human serum albumin [16]): 0.000461 s⁻¹; kon (human serum albumin [16]): 533000 M⁻¹ s⁻¹
